Experimental data taken from US20260028608.

Assays:
[1] = target: IgG in human serum pool from 100 individuals
[2] = target: anti-drug antibodies (ADA) in human serum

| Protein | enzyme concentration at which intact IgG started to be digested, serum pool with 0.1 mg/ml pCART243 (SDS-PAGE) [1] | enzyme concentration at which scIgG are further digested into F(ab')2 and Fc fragments in serum pool (SDS-PAGE) [1] | enzyme concentration for cleavage from IgG to scIgG in serum pool (SDS-PAGE) [1] | restoration of pCART239 IgG cleavage activity in serum by 0.1 mg/ml inactive decoy (SDS-PAGE) [2] |
| --- | --- | --- | --- | --- |
| pCART239, a variant IdeZ polypeptide of the invention (protein) MDDYQRNATEAYAKEVPHQITSVWTKGVTPPEQFTQGEDVIHAPYLAHQGWYDITKAFNGKDDLLCGAATAGNMLHWWFDQNKTEIEAYLSKHPEKQKIIFRNQELFDLKAAIDTKDSQTNSQLFNYFRDKAFPNLSARQLGVMPDLVLDMFINGYYLNVFKTQSTDVNRPYQDKDKRGGIFDAVFTRGNQTTLLTARHDLKNKGLNDISTIIKQELTEGRALALSHTYANVSISHVINLWGADFNAEGNLEAIYVTDSDANASIGMKKYFVGINAHGHVAISAKKIEGENIGAQVLGLFTLSSGKDIWQKLSGGGHHHHHH | Intact IgG started to be digested already at 0.03 µg/ml | approximately 1.9 µg/ml of enzyme | approximately 0.9 µg/ml of enzyme |  |
| pCART243, an inactive variant IdeZ polypeptide (protein) MDDYQRNATEAYAKEVPHQITSVWTKGVTPPEQFTQGEDVIHAPYLAHQGWYDITKAFNGKDDLLGGAATAGNMLHWWFDQNKTEIEAYLSKHPEKQKIIFRNQELFDLKAAIDTKDSQTNSQLFNYFRDKAFPNLSARQLGVMPDLVLDMFINGYYLNVFKTQSTDVNRPYQDKDKRGGIFDAVFTRGNQTTLLTARHDLKNKGLNDISTIIKQELTEGRALALSHTYANVSISHVINLWGADFNAEGNLEAIYVTDSDANASIGMKKYFVGINAHGHVAISAKKIEGENIGAQVLGLFTLSSGKDIWQKLSGGGHHHHHH |  |  |  | should bind the inactivating ADA to the extent that the activity of pCART239 in serum is restored. This was shown to be the case |
